B1: PE8 (Pelagibacterium halotolerans B2; S118A) (protein)
chain: MTEPVKLSGPMLPAVSGAAKSLVVLLHGYGSDGRDLIALGQFWRDSFPDTMFVAPNAPHVCGGNPFGYEWFPLDLERDRTLARLAGAETAHPVLDAFLADLWAQTGLGPADTILVGFAQGAMMALYTGLRLPEPLKAIIAFSGLIVAPEKLEAEIASKPPVLLIHGDLDDVVPVIGSETALPKLIDLGIDARLHISQGSGHTIAQDGLDTATAFLREIL
notes: 6xHis fusion from pET28b in E. coli Rosetta (DE3), Ni-NTA and SEC; monomer; catalytic triad Ser118, Asp169, His201
B2: PE8 (Pelagibacterium halotolerans B2; V172A) (protein)
chain: MTEPVKLSGPMLPAVSGAAKSLVVLLHGYGSDGRDLIALGQFWRDSFPDTMFVAPNAPHVCGGNPFGYEWFPLDLERDRTLARLAGAETAHPVLDAFLADLWAQTGLGPADTILVGFSQGAMMALYTGLRLPEPLKAIIAFSGLIVAPEKLEAEIASKPPVLLIHGDLDDVAPVIGSETALPKLIDLGIDARLHISQGSGHTIAQDGLDTATAFLREIL
notes: as for B1
B3: PE8 (Pelagibacterium halotolerans B2; M122A) (protein)
chain: MTEPVKLSGPMLPAVSGAAKSLVVLLHGYGSDGRDLIALGQFWRDSFPDTMFVAPNAPHVCGGNPFGYEWFPLDLERDRTLARLAGAETAHPVLDAFLADLWAQTGLGPADTILVGFSQGAAMALYTGLRLPEPLKAIIAFSGLIVAPEKLEAEIASKPPVLLIHGDLDDVVPVIGSETALPKLIDLGIDARLHISQGSGHTIAQDGLDTATAFLREIL
notes: as for B1
B4: PE8 (Pelagibacterium halotolerans B2; R83A) (protein)
chain: MTEPVKLSGPMLPAVSGAAKSLVVLLHGYGSDGRDLIALGQFWRDSFPDTMFVAPNAPHVCGGNPFGYEWFPLDLERDRTLAALAGAETAHPVLDAFLADLWAQTGLGPADTILVGFSQGAMMALYTGLRLPEPLKAIIAFSGLIVAPEKLEAEIASKPPVLLIHGDLDDVVPVIGSETALPKLIDLGIDARLHISQGSGHTIAQDGLDTATAFLREIL
notes: as for B1
B5: PE8 (Pelagibacterium halotolerans B2; V171A) (protein)
chain: MTEPVKLSGPMLPAVSGAAKSLVVLLHGYGSDGRDLIALGQFWRDSFPDTMFVAPNAPHVCGGNPFGYEWFPLDLERDRTLARLAGAETAHPVLDAFLADLWAQTGLGPADTILVGFSQGAMMALYTGLRLPEPLKAIIAFSGLIVAPEKLEAEIASKPPVLLIHGDLDDAVPVIGSETALPKLIDLGIDARLHISQGSGHTIAQDGLDTATAFLREIL
notes: as for B1
B6: PE8 (Pelagibacterium halotolerans B2; L73A) (protein)
chain: MTEPVKLSGPMLPAVSGAAKSLVVLLHGYGSDGRDLIALGQFWRDSFPDTMFVAPNAPHVCGGNPFGYEWFPADLERDRTLARLAGAETAHPVLDAFLADLWAQTGLGPADTILVGFSQGAMMALYTGLRLPEPLKAIIAFSGLIVAPEKLEAEIASKPPVLLIHGDLDDVVPVIGSETALPKLIDLGIDARLHISQGSGHTIAQDGLDTATAFLREIL
notes: as for B1
B7: PE8 (Pelagibacterium halotolerans B2) (protein)
chain: MTEPVKLSGPMLPAVSGAAKSLVVLLHGYGSDGRDLIALGQFWRDSFPDTMFVAPNAPHVCGGNPFGYEWFPLDLERDRTLARLAGAETAHPVLDAFLADLWAQTGLGPADTILVGFSQGAMMALYTGLRLPEPLKAIIAFSGLIVAPEKLEAEIASKPPVLLIHGDLDDVVPVIGSETALPKLIDLGIDARLHISQGSGHTIAQDGLDTATAFLREIL
notes: as for B1
B8: PE8 (Pelagibacterium halotolerans B2; R79A) (protein)
chain: MTEPVKLSGPMLPAVSGAAKSLVVLLHGYGSDGRDLIALGQFWRDSFPDTMFVAPNAPHVCGGNPFGYEWFPLDLERDATLARLAGAETAHPVLDAFLADLWAQTGLGPADTILVGFSQGAMMALYTGLRLPEPLKAIIAFSGLIVAPEKLEAEIASKPPVLLIHGDLDDVVPVIGSETALPKLIDLGIDARLHISQGSGHTIAQDGLDTATAFLREIL
notes: as for B1

For eight proteins, Km, Vmax and kcat results are on record in article PMC5493697, “Crystal structure of Pelagibacterium halotolerans PE8: New insight into its substrate-binding pattern” (Scientific Reports, 2017).

Substrate in the series: CC(=O)Oc1ccc([N+](=O)[O-])cc1
Put plainly: purified protein. The conditions noted are these: 100 mM Tris-HCl pH 7.5, 30 °C, 0.05-4 mM substrate in acetonitrile. The series is classed as biochemical, Pelagibacterium halotolerans.
Regarding B1, the Km is 540 ± 46 µM, the Vmax worked out at 12 µM/min/mg and the kcat was 5.1 ± 0.14 s⁻¹.

B2: the Km was 500 ± 35 µM, the Vmax is 82 µM/min/mg and the kcat worked out at 35 ± 0.63 s⁻¹.

Regarding B3, the Km was determined as 75 ± 6.9 µM, the Vmax stood at 96 µM/min/mg and the kcat was found to be 40 ± 0.68 s⁻¹.

On to B4, for which the Michaelis-Menten constant (Km) worked out at 600 ± 23 µM, the Vmax stood at 97 µM/min/mg and the kcat came to 41 ± 0.42 s⁻¹.

Take B5: the Km worked out at 890 ± 70 µM, the Vmax turned out to be 36 µM/min/mg and the kcat was 19 ± 0.42 s⁻¹.

Consider B6, for which the Km is 530 ± 26 µM, the Vmax stood at 55 µM/min/mg and the kcat is 23 ± 0.27 s⁻¹.

With B7, the Km worked out at 660 ± 49 µM, the Vmax stood at 71 µM/min/mg and the kcat is 30 ± 0.68 s⁻¹.

For the protein B8, the Km amounted to 600 ± 62 µM, the Vmax turned out to be 132 µM/min/mg and the kcat was 55 ± 1.7 s⁻¹.
